In the RNAGym collection of RNA variant scans (doi:10.7554/elife.80360) one finds self-cleavage data, which are given here for 32 variants.

B1: HDV Ribozyme (parent)
chain: GGCCGGCAUGGUCCCAGCCUCCUCGCUGGCGCCGGCUGGGCAACAUUCCGAGGGGACCGUCCCCUCGGUAAUGGCGAAUGGGACCCA

The variants in the series derive from B1. Briefly: self-cleavage, relative activity (ratio to wild type); higher = more cleavage; co-transcriptional.
For the variant GGCCGGCAUGGUCCCAGCCCCCUCGCUGGCGCCGGCUGCGCAACAUUCCGAGGGGACCGUCCCCUCGGUAAUGGCGAAUGGGACCCA [U20C G39C], the self-cleavage was determined as 0.185. Next, GGCAGGCAUGGUCCCAGCCUCCUCGCUGGCGCCGGCUGGGCAACAUUCCGACGGGACCGUCCCCUCGGUAAUGGCGAAUGGGACCCA [C4A G52C]: 0.406.

As for GGCUGGCAUGGUCCCAGCCUCCUCGCUGGCGCCGGCUGGGCAACAUUCCGAGGGGACCGUCACCUCGGUAAUGGCGAAUGGGACCCA [C4U C62A], the self-cleavage stood at 1.06. The value for GGCCGGCAUGGUCCCAGCCUCCUCGCUGGCGCCUGCUGGGCAACAUUCCGAGGGGACCGUCCCCUCGGUAAUGGCGAAUGGGACACA [G34U C85A] was 0.164; that for GGCCGGCAUGGUCCCAGCCUCCUCGCUGGCGCCAGCUGGGCAACAUUCCGAGGGGACCGACCCCUCGGUAAUGGCGAAUGGGACCCA [G34A U60A] was 0.204; that for GGCCGGCAUGGUCCCAGCCUCCUCGCUGGCGCCGGCUGGGCAACAUUCCGAGGGGACCAUCCCCUCGGUAAUGACGAAUGGGACCCA [G59A G74A] was 0.431. The value for GGCCGGCAUGGUCCCAGCCUCCUCGCUGGCGCCGGCUGGGCAACAUUCCGAGGGGACCGUCCCCUCAGUAAUGGCGAAUGGGACCCC [G67A A87C] was 0.956. The value for GGCCGGCAUGGUCCCAGCCUCCUCGCUGGCGCCGGCUGGGCAACAUUCCGAGGGGACCGUCCCCUCGGUUAUGGCGAAUGGGGCCCA [A70U A83G] was 0.902. For the variant GGCCGGCAUGGUCCCAGCCUCCUCGCUGGCGCCGCCUGGGCAACAUUCCGACGGGACCGUCCCCUCGGUAAUGGCGAAUGGGACCCA [G35C G52C], the self-cleavage came out at 0.128. The value for GGCCGGCAUGGUCCCAGCAUCCUCGCUGGCGCCGGCUGGGCAACAUUCCGAGGGGACAGUCCCCUCGGUAAUGGCGAAUGGGACCCA [C19A C58A] was 0.095; that for GGCCGGCAUGGUCCCAGCCUCCGUGCUGGCGCCGGCUGGGCAACAUUCCGAGGGGACCGUCCCCUCGGUAAUGGCGAAUGGGACCCA [U23G C24U] was 0.314; that for GGCCGGAAUGGUCCCAGCCUCCUCGCUGGCGCCGGGUGGGCAACAUUCCGAGGGGACCGUCCCCUCGGUAAUGGCGAAUGGGACCCA [C7A C36G] was 0.0875. As to GGCCGGCUUGGUCCCAGCCUCCUCGCUGGCGCCGGCUGGGCAACAUUCCGAGGGGACCGUCCCCUCGGUAAUGGCGAAUGGGCCCCA [A8U A83C], the self-cleavage is 0. As for GGCCGCCAUGGUCCCAGCCUCCUCGCUGGCGCCGGCUGGGCAACAUUCCGAGGGGACCGUCCCCUCGGUAAUGGCGAAUGGGACCCC [G6C A87C], the self-cleavage was found to be 0.312. Consider GGCCGGCAUGGUCCCAGCGUCCUCGCUGGCGCCGGCUGGGCAACAUUCCGAGGGGACCGUCCCAUCGGUAAUGGCGAAUGGGACCCA [C19G C64A], for which the self-cleavage stood at 0.0528. The value for GGCCGGCAUAAUCCCAGCCUCCUCGCUGGCGCCGGCUGGGCAACAUUCCGAGGGGACCGUCCCCUCGGUAAUGGCGAAUGGGACCCA [G10A G11A] was 0.189; that for GGCCGGCAUGGUCCCAGCCUCCUCGCUGGCGCCGGCUGGGCAACAUUCCGAGGGGACCGUCCCCUCCGUAAUGCCGAAUGGGACCCA [G67C G74C] was 0.123.

For GGCCCGCAUGGUCCCAGCCUCCUCGCUGGCGCCGGCUGGGCAACAUUCCGAGGGGACCGUCCCCUCGGUAAUGUCGAAUGGGACCCA [G5C G74U], the self-cleavage is 0.161. As to GGCCGGCAUGGUCCCUGCCUCCUCGCUGGCGCCGGCUGGGCAACAUUCCGAGGGGACCGUCCCCUCGGUAAUGGGGAAUGGGACCCA [A16U C75G], the self-cleavage turned out to be 0.119. As for GGCCGGCAUGGUCCCAGCCUCCUCGCUGGCGCAGGCUGGGCAACAUUCCGAGGGGACCGUCCCCUCGAUAAUGGCGAAUGGGACCCA [C33A G68A], the self-cleavage stood at 0.157. Take GGCCGGCAUGGUCCCAGCCUCCUCGCUGGCGACGGCUGGGCAACAUUCCGUGGGGACCGUCCCCUCGGUAAUGGCGAAUGGGACCCA [C32A A51U]: the self-cleavage amounted to 0.256. The value for GGCCGGCAUGGUCCCUGCCUCCUCUCUGGCGCCGGCUGGGCAACAUUCCGAGGGGACCGUCCCCUCGGUAAUGGCGAAUGGGACCCA [A16U G25U] was 0.166. For the variant GGCCGGCGUGGUCCCAGCCUCCUCGCUGGCGACGGCUGGGCAACAUUCCGAGGGGACCGUCCCCUCGGUAAUGGCGAAUGGGACCCA [A8G C32A], the self-cleavage is 0.0852. Next, GGCCGGCAUGGUCCCAGCCUCCUCGCUGGCGCCGGGUGGGCAACAUUCCGAGGGGACCGUCCCCUCGGUAAUGGCAAAUGGGACCCA [C36G G76A]: 0.162; GGCCGGCAUGGUCCCAGCCUCCUCUCUGGCGCCGGCUGGGCAACAUUCCGAGGUGACCGUCCCCUCGGUAAUGGCGAAUGGGACCCA [G25U G54U]: 0.228; GGCCGGCAUGGUGCCAGCCUCCUCGCUGGCGCCGGCUGGGCAACAUUCCGAGGGGACCAUCCCCUCGGUAAUGGCGAAUGGGACCCA [C13G G59A]: 0.148. The value for GGCCGGCAUGGUCCCAGCCUCCUCGCUGGCGCCGGCUGGGCAACAUUCCGAGGGGACCUUCCCCUCGGUAAUGGCGGAUGGGACCCA [G59U A77G] was 0.847; that for GGCCGGCAUGGUCCCAGCCUCUUCGCUGGCACCGGCUGGGCAACAUUCCGAGGGGACCGUCCCCUCGGUAAUGGCGAAUGGGACCCA [C22U G31A] was 0.22; that for GGCCGGCUUGGUCCCAGCCUCCUCGCUGGCGUCGGCUGGGCAACAUUCCGAGGGGACCGUCCCCUCGGUAAUGGCGAAUGGGACCCA [A8U C32U] was 0.554. Next, GGCCGGCAUGGUCCCAGCCUCCUCGCUGGCGCUGGCUGGGCAACAUUCCGAGGGGACCGUCCCCUCGGUAAUGGCGACUGGGACCCA [C33U A78C]: 0.0831; GGCCGGCAUGGUCCCAGCCUCCUCGCUGGCGCCGGCUGGGCAACAUUCCGAGGGGCCCGUCCCCUCGCUAAUGGCGAAUGGGACCCA [A56C G68C]: 0.486; GGCCGGCAUGGUCCCAGCCUCCUCGCUGGCGCCGGCUGGGCAACAUUCCGAGGGGACCGUCCCCUGGGUAAUCGCGAAUGGGACCCA [C66G G73C]: 0.46.
